# Measured values taken from the DeepSol protein solubility set.
# Experiment: soluble on expression in E. coli; label from the status in PepcDB or PDB records
row,Sequence,soluble on expression in E. coli
1,MKLATLKNNTRDGQLVVVNRALDKAVVVSHIAATLQAALDNWSEISPKLAEVYQSLNNNEITDTLVFEQAACESPLPRAYQWADGSAYVNHVELVRKARNAEMPATFWTDPLMYQGGSDAFIGPRDDISIASEEYGIDFESEVAVITDDVPMGISVEQAANHIKLLMLVNDVSLRNLIPGELAKGFGFFASKPSSAFSPVAVTPDELGDAWDGKKLHLPLTTHLNETLFGQPNCGVDMTFDFPTIVAHAAKTRPLSTGCVIGSGTISNYDRSVGSSCLAEIRMLEIIADGKPTTPFMSFGDTVRIEMFDNEGASIFGSIDQKVVEYKAQ,not soluble
2,MKLAVYSTKQYDKKYLQQVNESFGFELEFFDFLLTEKTAKTANGCEAVCIFVNDDGSRPVLEELKKHGVKYIALRCAGFNNVDLDAAKELGLKVVRVPAYDPEAVAEHAIGMMMTLNRRIHRAYQRTRDANFSLEGLTGFTMYGKTAGVIGTGKIGVAMLRILKGFGMRLLAFDPYPSAAALELGVEYVDLPTLFSESDVISLHCPLTPENYHLLNEAAFEQMKNGVMIVNTSRGALIDSQAAIEALKNQKIGSLGMDVYENERDLFFEDKSNDVIQDDVFRRLSACHNVLFTGHQAFLTAEALTSISQTTLQNLSNLEKGETCPNELV,soluble
3,MKLFERIHQDTEIRQIYDAIGQMEDEEAGWAYHNWFHVTNVVAMTEMILKQLAVSEEYLEAAKIAALLHDVGALQGKAGHALRGKQFAEAYFRKQKICLPYQEEILSSIENHSNGFDSEELMTLALIISDKLDITTSRVAKAGYFVPGMRQFQFLKKIEIMLSEQEVCVSFTAEEELDLEELNAFYFMPKVFKAIAAFSGKIQRRPIVLLNNQEWPVPKQKNPSTVH,not soluble
4,MKLFERIHQDTEIRQIYDAIGQMEDEEAGWAYHNWFHVTNVVAMTEMILKQLAVSEEYLEAAKIAALLHDVGALQGKAGHALRGKQFAEAYFRKQKICLPYQEEILSSIENHSNGFDSEELMTLALIISDKLDITTSRVAKAGYFVPGMRQFQFLKKIEIMLSEQEVCVSFTAEEELDLEELNAFYFMPKVFKAIAAFSGKIQRRPIVLLNNQEWPVPKQKNPSTVHLEHHHHHH,soluble
5,MKLKIGIVCYPTVGGSGVVATELGKLLAERGHEIHFISSSMPFRLNKVYGNIYYHEVSVNQYSVFQYPPYDLALASKIAEVAKRERLDVLHAHYAVPHAVCAVLARQMVGELPIITTLHGTDITVLGYDPSLSDMIKFGIEQSDIVTAVSDALARQTYELLDVQATIHTVYNFVDERVYRRREAGHLRREYGIRDDERVVIHVSNFRKVKRVPDVVRAFAIVRRHVPAKLLLVGDGPEMTVVCRLVKELGLQDDVRFLGKQDKLEELYSISDVMMLLSEKESFGLVLLEAMACGVPCIGTAIGGIPEVIEDGKTGFLCPLGDVKEAARQAMALLTDCRLHAEMARQAVQTVERKFRSADIVGQYEQLYASLAARKVKR,not soluble
6,MKLKLVDVETNPHEEEVGTCEFCMSVEMVNEPVFVFKKDIGELVRVKAFIWSWGFYDEENIENIVDFAAYVNEQEFDEEQELDYSWLTNLIYEYEYGKDC,not soluble
7,MKLKSFGVFGNPIKHSKSPLIHNACFLTFQKELRFLGHYHPILLPLESHIKSEFLHLGLSGANVTLPFKERAFQVCDKIKGIALECGAVNTLVLENDELVGYNTDALGFYLSLKQKNYQNALILGAGGSAKALACELKKQGLQVSVLNRSSRGLDFFQRLGCDCFMEPPKSAFDLIINATSASLHNELPLNKEVLKGYFKEGKLAYDLAYGFLTPFLSLAKELKTPFQDGKDMLIYQAALSFEKFSASQIPYSKAFEVMRSVFLEHHHHHH,soluble
8,MKLLKDLLVDRKEFEDWKNNLTWARDGTLYLTTFPDISIGQPKYAKDINCNSKNLFHVKEFPLEFENKLDFELAQQNGLLNSQPVCYPRVCKPSPIDDWMAVLSNNGNVSVFKDNKMLTNLDSKGNLSSRTYHCFEWNPIESSIVVGNEDGELQFFSIRKNSENTPEFYFESSIRLSDAGSKDWVTHIVWYEDVLVAALSNNSVFSMTVSASSHQPVSRMIQNASRRKITDLKIVDYKVVLTCPGYVHKIDLKNYSISSLKTGSLENFHIIPLNHEKESTILLMSNKTSYKVLLEDELHVTADNIIAPYLEKKFKKWSTIWNEFNNYETTLVIHGISLSPDGYSIAIVYDMERVAFKYKIASEQSFNIMFAPLYHTWTISERAVGLAWYQTYQIYNQSLPKLPENFSMNKKLLNGNYPISLDFQSYLNALMKSEEMRIIMFLNMTIDKPSILSFLEALYEYAINKKSELTNSFDLACVLSIAAILKREAPIYNGTLLMKNSFLEETFNLESFTADPETVTSTTNNTWKRCGVTLLPILTTHVKICPVSKQRVIDIKRDDLNDYGWFTRGLLERFNEISVYCGTTLEVM,soluble
9,MKLNFNPVTKEEIHQLETALLVGTLFRKEVLEEIRNSAERLTWVDSLAVAAGALARAKAGMTASEIAEELGRTEATIREHVKGETKAGKLVNETYELLKEGKLSVEGLIGEGIKVVTTTTGSDEKLQEVKKELEEIKQKLESVIQKL,soluble
10,MKLNFSLYRYNPDVDNKPYMKDYILEVEEGSDMMVLDALILLKEQDPSIAFRRSCREGVCGSDGLNMNGKNGLACITPLSALKGDKIVIRPLPGLPVVRDLIVDMTQFYDNYAKVKPFLIADDALPPSRENLQSPEERAHLDGLYECIMCACCTTSCPSFWWNPDKFIGPAGLLAAYRWLIDSRDTATDERLSNLDDAFSVFRCHGIMNCVSVCPKGLNPTKAIGHIKSMLINRSV,not soluble
11,MKLSPSVIALSVLLSSHTLANTAGQVETCQQKAQDIQRQIDEAHKHGNQNRINGLEKALDGVKNHCTDAGLAEKRQEAIAEKRKDVAERQQELSESRQKRDDAEKILKRERKLAEAEQELRAAESGASQLEHHHHHH,soluble
12,MKLTGFLKQNVRVRFAPSPTGHLHIGGLRTAFFNYLFAKKYGGDFILRIEDTDRTRFVDDAQDQIYSSLNFYNLLPDEGPREGGKFGPYEQSKRLEIYRNAAYRLIDSGHAYRCFCSENRLDLLRKTAEKRGEIPKYDRKCANLSSRDAVKMEQNGEKFVIRFKLDKQNVQFHDEVFGSVNQFIDESDPVLLKSDGFPTYHLANVIDDRKMEISHVIRGMEWLSSTGKHTILYKAFNWTPPKFVHLSLIMRSATKKLSKRDKDAFVSYYSEQLGALPEAVLNLMIRNGAGIRNFDAEHFYSLDEMIEQFDLSLLGRRNLLLDSDVLQKYSRMAFQKSDFKELYPRIIDILNKKSNYSTSREDIQKIVTFLKAKEENFGFLSSLSTEFSWFFTRPQSSQLLKESHPNVDLRNILNSLLEIEVFNSESLEYLAKNHQLNLAKAMGIVRISLIGSKKGPPISELVEFFGMTECHRRIRIMQELL,not soluble
13,MKLTPNFYRDRVCLNVLAGSKDNAREIYAAAEGHVLVGVLSKNYPDVASAVADMREYAALIDNALSVGLGAGDPNQSAMVSEISRQVQPQHVNQVFTGVGTSRALLGQNETVVNGLVSPTGTPGLVKISTGPLSSRAPDGIVPIETAIALLKDMGGSSVKYFPMGGLTCRDEYKAVAEPAPAMISGWNRRAVSIWKTSPRFCTSPLMQV,not soluble
14,MKLVTGFARIRKPSRPIEFGRWPNRSMSVRVPGAMPLASMNLAVGQSVRIGQRPNSSPSSLPNISFAKIRRWPSRRWLRHQGLHGPIDFGRWPNETMSIRVPGAMPLASMKLAVGQSTALAKGQTQHSQRATPLVLQRTTHTLANGQMQPIITPKRIVHQTRSHIVGGSRDIRLGMSLPGDAPAGSRCRQRRFHDALGRPKRSRTLVANRTCPGWDVASSQTWTSPAWPSPQSPSPDGFGSCQTNKDLTSRGCGG,not soluble
15,MKMDYILSDFAQKQGYAVESYEIVDSTNYIAQQKAHAGHHGYLWVVAKEQSQGRARRGRTWSSPKGNLYSSLLLVEDIVHQTAAQLGFVAGVSVVETIKQFIKDEKQTSDIVSLKWPNDILLRGAKSSGILLEIFKLPSQQYALVIGIGINVKYHYEDAPYPTSSLKNIGLDIETEQLFTVLTEYFSKNYLLWKQLGGCDRIREKWLLYSAHSGQYVKIVNDEKIIEGIFDGLDNDFNCVIKQKNGQQAVITAGDVHFGSSASVNAGCY,not soluble
16,MKNFVRTTLLAATLAGVSFGAFATAVPNPPLPAQDPIVQHLKLTNDQITRIKKLHQQLETDVSQISMKGIKDGALIEVIKSGKWDDAAVKQQLAAFSNIEQQARYYRVKYYFDLSKVLTPEQRQQVQQDLAQALELEHHHHHH,soluble
